Literature values as cited in article PMC10696404.
“And” between values parts separate entries of the source, which are not always exact repeats. Equal values may be shown once. Blank lines part the entries; values can stand above or below the substance they belong to.

How the values were obtained:
NRP1 (Homo sapiens) = NRP1 (Homo sapiens) (UniProt O14786); assay: SPR
CD146 ECD (Homo sapiens) = CD146 ECD (Homo sapiens) (UniProt P43121); assay: bio-layer interferometry
CD13 (Homo sapiens) = CD13 (Homo sapiens) (UniProt P15144); assay: SPR
DLL4 (Homo sapiens) = DLL4 (Homo sapiens) (UniProt Q9NR61); assay: SPR
JAG1 (Homo sapiens) = JAG1 (Homo sapiens) (UniProt P78504); assay: SPR
CEA (Homo sapiens) = CEA (Homo sapiens) (UniProt P06731); assay: SPR
CD44vRA (Homo sapiens) = CD44vRA (Homo sapiens) (UniProt P16070); assay: SPR
CD44s (Homo sapiens) = CD44s (Homo sapiens) (UniProt P16070); assay: SPR
ALCAM (Homo sapiens) = ALCAM (Homo sapiens) (UniProt Q13740); assay: SPR
CD44v3-10 (Homo sapiens) = CD44v3-10 (Homo sapiens) (UniProt P16070); assay: SPR
Chain of CD44v3-10 (Homo sapiens) (P16070 21-742): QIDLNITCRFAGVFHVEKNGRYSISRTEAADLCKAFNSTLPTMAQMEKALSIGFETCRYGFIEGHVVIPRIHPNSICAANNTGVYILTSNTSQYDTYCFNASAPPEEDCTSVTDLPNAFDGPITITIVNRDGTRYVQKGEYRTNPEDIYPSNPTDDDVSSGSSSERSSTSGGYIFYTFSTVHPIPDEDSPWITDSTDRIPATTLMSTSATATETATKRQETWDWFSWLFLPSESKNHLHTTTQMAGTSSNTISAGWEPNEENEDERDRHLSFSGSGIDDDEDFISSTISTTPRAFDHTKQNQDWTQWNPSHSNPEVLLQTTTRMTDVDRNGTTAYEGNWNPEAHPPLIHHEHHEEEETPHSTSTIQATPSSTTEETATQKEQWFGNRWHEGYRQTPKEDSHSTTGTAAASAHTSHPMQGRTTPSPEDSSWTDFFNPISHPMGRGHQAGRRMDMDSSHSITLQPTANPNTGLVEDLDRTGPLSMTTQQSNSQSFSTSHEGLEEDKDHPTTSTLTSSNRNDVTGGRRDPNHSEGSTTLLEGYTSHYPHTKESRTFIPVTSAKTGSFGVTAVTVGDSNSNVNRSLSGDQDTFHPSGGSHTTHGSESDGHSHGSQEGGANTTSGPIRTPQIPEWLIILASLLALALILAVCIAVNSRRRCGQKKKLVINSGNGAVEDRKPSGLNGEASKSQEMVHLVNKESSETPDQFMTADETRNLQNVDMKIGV

Chain of GAL-3 (P17931 2-250): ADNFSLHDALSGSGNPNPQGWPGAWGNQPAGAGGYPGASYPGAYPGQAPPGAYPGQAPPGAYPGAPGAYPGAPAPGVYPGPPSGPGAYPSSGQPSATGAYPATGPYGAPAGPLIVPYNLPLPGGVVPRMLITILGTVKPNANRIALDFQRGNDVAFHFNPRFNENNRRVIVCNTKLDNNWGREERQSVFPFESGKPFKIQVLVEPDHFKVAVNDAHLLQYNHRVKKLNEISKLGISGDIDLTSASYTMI
Chain of GAL-8 (O00214 whole entry): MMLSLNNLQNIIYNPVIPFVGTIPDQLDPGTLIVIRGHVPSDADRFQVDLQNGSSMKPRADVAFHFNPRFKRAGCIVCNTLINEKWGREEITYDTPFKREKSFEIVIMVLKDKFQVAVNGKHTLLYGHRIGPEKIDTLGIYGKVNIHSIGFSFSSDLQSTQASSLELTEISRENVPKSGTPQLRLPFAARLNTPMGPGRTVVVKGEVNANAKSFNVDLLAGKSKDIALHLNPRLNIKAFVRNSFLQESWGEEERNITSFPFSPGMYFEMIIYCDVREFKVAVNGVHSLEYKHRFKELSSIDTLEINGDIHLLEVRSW
Chain of ALCAM (Homo sapiens) (Q13740 28-583): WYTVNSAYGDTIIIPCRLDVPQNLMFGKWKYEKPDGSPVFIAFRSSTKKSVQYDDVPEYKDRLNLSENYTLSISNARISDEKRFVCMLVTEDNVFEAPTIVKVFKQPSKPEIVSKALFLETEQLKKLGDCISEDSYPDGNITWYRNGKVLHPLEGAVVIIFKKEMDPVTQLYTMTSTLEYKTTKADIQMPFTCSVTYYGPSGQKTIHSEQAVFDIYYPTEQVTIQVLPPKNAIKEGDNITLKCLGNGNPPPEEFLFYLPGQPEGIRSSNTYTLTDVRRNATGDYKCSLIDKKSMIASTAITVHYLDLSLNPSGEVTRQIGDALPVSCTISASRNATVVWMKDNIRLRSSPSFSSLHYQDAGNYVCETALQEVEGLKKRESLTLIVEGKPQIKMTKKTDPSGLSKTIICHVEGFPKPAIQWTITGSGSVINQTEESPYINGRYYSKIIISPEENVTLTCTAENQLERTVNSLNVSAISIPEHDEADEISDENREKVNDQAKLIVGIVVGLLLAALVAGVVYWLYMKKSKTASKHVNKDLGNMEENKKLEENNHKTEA
Chain of GAL-4 (P56470 whole entry): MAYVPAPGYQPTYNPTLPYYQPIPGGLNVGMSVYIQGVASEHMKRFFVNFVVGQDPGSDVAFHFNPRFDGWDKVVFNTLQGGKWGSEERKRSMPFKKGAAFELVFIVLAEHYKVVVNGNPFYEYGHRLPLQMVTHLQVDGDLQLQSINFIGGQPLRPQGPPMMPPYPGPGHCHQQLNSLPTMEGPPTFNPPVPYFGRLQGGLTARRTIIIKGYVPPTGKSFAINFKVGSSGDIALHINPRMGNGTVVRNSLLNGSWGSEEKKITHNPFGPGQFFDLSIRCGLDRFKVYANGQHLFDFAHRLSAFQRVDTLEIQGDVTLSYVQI
Chain of JAG1 (Homo sapiens) (P78504 34-1218): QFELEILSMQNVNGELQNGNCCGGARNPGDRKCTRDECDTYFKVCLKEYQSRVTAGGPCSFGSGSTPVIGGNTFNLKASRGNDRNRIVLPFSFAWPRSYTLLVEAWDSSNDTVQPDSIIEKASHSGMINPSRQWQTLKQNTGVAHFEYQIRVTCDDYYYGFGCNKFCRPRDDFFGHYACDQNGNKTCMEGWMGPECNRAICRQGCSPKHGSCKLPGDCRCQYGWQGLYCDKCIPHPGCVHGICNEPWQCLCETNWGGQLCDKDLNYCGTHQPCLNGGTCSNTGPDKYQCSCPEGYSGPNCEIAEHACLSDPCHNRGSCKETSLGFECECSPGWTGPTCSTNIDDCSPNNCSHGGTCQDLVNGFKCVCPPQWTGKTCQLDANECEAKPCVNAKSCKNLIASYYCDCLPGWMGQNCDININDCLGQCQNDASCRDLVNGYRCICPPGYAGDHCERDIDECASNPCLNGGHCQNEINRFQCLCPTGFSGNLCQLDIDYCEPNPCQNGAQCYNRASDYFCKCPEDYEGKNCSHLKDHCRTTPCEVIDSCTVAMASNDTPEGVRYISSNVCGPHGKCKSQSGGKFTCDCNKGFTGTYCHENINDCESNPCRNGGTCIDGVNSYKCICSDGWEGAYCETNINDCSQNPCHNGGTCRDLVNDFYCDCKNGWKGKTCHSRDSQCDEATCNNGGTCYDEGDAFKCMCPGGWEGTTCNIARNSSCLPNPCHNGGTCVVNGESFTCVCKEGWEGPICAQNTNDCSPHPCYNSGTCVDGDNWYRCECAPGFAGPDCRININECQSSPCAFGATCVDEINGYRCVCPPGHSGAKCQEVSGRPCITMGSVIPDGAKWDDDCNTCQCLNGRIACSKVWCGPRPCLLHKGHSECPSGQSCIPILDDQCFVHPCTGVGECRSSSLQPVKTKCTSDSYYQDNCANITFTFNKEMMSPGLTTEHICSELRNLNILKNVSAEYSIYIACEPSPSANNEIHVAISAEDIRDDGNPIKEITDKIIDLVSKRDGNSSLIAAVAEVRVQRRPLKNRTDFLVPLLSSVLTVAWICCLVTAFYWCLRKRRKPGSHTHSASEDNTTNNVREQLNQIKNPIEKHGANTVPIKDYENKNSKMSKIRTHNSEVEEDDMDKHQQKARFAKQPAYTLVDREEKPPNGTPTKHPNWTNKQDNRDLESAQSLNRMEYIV
Chain of CD146 ECD (Homo sapiens) (P43121 24-559): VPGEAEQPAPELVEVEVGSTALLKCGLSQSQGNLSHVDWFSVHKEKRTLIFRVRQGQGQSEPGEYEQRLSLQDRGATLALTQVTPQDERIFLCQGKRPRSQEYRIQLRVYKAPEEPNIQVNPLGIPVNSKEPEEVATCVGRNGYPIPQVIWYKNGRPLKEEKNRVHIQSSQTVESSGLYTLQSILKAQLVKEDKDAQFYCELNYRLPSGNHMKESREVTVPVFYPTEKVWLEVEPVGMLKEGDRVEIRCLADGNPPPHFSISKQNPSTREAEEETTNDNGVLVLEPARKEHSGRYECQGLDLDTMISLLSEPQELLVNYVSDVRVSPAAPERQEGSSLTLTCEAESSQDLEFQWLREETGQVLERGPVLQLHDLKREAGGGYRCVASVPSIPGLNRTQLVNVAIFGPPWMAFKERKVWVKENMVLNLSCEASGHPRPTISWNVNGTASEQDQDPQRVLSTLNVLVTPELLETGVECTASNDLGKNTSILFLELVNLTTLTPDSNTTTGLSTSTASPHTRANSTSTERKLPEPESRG
Chain of CEA (Homo sapiens) (P06731 35-676): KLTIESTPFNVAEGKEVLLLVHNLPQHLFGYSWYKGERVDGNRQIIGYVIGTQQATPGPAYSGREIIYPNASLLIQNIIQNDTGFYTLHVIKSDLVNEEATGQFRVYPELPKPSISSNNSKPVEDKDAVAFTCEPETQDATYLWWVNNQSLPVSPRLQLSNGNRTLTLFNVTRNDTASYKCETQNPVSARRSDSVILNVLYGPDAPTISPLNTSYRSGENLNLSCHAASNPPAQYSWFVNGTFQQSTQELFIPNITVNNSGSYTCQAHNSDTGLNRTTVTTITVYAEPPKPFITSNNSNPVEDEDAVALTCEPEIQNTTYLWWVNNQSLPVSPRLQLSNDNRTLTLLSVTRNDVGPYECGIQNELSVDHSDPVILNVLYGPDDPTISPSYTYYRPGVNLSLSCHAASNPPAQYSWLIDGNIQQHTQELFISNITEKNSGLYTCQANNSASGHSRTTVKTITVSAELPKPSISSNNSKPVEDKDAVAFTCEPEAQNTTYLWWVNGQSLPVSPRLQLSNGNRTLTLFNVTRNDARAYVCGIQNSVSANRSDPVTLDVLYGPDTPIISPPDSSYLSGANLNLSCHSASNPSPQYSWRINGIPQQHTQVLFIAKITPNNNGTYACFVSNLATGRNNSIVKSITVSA
Chain of CD44s (Homo sapiens) (P16070 21-742): as the sequence (P16070 21-742) above
Chain of CD44vRA (Homo sapiens) (P16070 21-742): as above
Chain of GAL-1 (P09382 2-135): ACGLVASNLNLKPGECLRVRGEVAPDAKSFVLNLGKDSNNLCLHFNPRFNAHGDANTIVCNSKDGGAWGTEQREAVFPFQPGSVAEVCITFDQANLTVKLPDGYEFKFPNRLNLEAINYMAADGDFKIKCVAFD

- Kd (NRP1 (Homo sapiens)): 109 nM
Substance: GAL-1 (from UniProt P09382)

- Kd (CD146 ECD (Homo sapiens)): 1100 nM
- Kd (CD13 (Homo sapiens)): 349 nM
- Kd (DLL4 (Homo sapiens)): 8520 nM
- Kd (JAG1 (Homo sapiens)): 8910 nM
Substance: GAL-3 (from UniProt P17931)

- Kd (CEA (Homo sapiens)): 20 nM
Substance: GAL-4 (from UniProt P56470)

- Kd (CD44vRA (Homo sapiens)): 5.8 nM
- Kd (CD44s (Homo sapiens)): 10000 nM
- Kd (ALCAM (Homo sapiens)): 3190 nM and 2000 nM
- Kd (CD44v3-10 (Homo sapiens)): 27 nM
Substance: GAL-8 (from UniProt O00214)
